Data from patent publication US20120148499A1.
Primed or numbered codes have the meaning given here. 5,6FAM″ = fluorescein-5(6)-carbonyl on the lysine (K(5,6FAM))

Target: purified myelin basic protein (MBP)
Assay: peptide binding to MBP-crosslinked beads against control beads without MBP

B1: acetyl-…(5,6FAM)-amide (peptide)
peptide: Ac-SHSTYTDWLNFWAWPGK(5,6FAM″)-NH2
fold increase in binding to MBP crosslinked beads over control beads (no MBP): 10 fold
